Key:
Assay in all cases: two-hybrid library CCmax;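 further: natural log of median RNA to DNA barcode read ratio; higher means stronger binding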
Conditions in all cases: mean of both orientations
4H1579-AA = biological target: T1, 4H1579-AA
T1 chain: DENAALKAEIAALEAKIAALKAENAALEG

4H171-AA = biological target: T2, 4H171-AA
T2 chain: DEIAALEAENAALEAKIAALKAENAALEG

4H2620-AA = biological target: T3, 4H2620-AA
T3 chain: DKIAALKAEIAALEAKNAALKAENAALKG

4H1351-AA = biological target: T4, 4H1351-AA
T4 chain: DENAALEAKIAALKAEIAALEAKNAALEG

4H1385-AA = biological target: T5, 4H1385-AA
T5 chain: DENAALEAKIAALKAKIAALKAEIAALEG

4H3378-AA = biological target: T6, 4H3378-AA
T6 chain: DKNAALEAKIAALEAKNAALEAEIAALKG

4H1874-AA = biological target: T7, 4H1874-AA
T7 chain: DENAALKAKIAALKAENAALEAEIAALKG

4H3413-AA = biological target: T8, 4H3413-AA
T8 chain: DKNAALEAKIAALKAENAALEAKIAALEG

4H174-AA = biological target: T9, 4H174-AA
T9 chain: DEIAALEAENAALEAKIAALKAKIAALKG

4H1513-AA = biological target: T10, 4H1513-AA
T10 chain: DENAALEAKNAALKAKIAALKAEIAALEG

4H1478-AA = biological target: T11, 4H1478-AA
T11 chain: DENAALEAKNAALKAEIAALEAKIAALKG

4H2109-AA = biological target: T12, 4H2109-AA
T12 chain: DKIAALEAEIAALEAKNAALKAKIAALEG

4H1842-AA = biological target: T13, 4H1842-AA
T13 chain: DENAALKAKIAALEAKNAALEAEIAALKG

- interaction score (4H1579-AA): -1.2
- interaction score (4H171-AA): -0.8
- interaction score (4H2620-AA): -1.03
- interaction score (4H1351-AA): -1.27
- interaction score (4H1385-AA): -1.04
- interaction score (4H3378-AA): -0.0826
- interaction score (4H1874-AA): 2.14
- interaction score (4H3413-AA): 1.51
- interaction score (4H174-AA): 0.83
- interaction score (4H1513-AA): -1.48
- interaction score (4H1478-AA): -1.2
- interaction score (4H2109-AA): 0.409
- interaction score (4H1842-AA): 0.334
Binder: DENAALEAKIAALEAENAALKAKIAALKG [4H1310-AA]
